In the supplement of paper PMC10724198 one finds protein stability index data, which are given here for 16 sequences.

± gives the standard deviation of the averaged measurements.

Data set [1] has as its system Saccharomyces cerevisiae. Put plainly: protein stability index of tFT-peptide fusion (C-terminal peptide) (PSI (0-1 scale)); higher = more stable (slower turnover). On the procedure: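 MPS profiling in S. cerevisiae of the tFT-X12 degron library: putative degron peptides plus stable controls, 12 aa, fused to the C-terminus of a sfGFP-mCherry timer. Cells are FACS-sorted into 8 mCherry/sfGFP bins and deep-sequenced. PSI runs from 0 (unstable) to 1 (stable). Backgrounds are wild type, das1Δ and doa10Δ at 30 °C, and wild type, das1Δ, cdc34-1 and cdc53-1 at 37 °C; 2-3 technical replicates each.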

In data set [2] the test system is Saccharomyces cerevisiae. Described as above. The note with it: genetic background: wild type; temperature: 30 C.
Where [3] appears, read: genetic background: cdc34-1, temperature: 37 C.
Setting [4] is: genetic background: cdc53-1, temperature: 37 C.
Where [5] appears, read: genetic background: das1 deletion, temperature: 30 C.
Setting [6] is: genetic background: das1 deletion, temperature: 37 C.
[7] abbreviates: genetic background: doa10 deletion, temperature: 30 C.
Setting [8] is: genetic background: wild type, temperature: 30 C.
Where [9] appears, read: genetic background: wild type, temperature: 37 C.
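Also: PSI is a weighted mean of sequencing reads over stability bins, variants kept only with over 10 reads, mCherry proximal and sfGFP distal, peptide attached via GGGS linker.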

On to VGEQEVVGIGGV, for which the protein stability index in the data set on Saccharomyces cerevisiae [1] (setting [3]) stood at 0.674 ± 0.039; with Saccharomyces cerevisiae [1] (setting [4]), 0.7077 ± 0.0065; in the data set with Saccharomyces cerevisiae [1] (setting [5]), 0.653 ± 0.021; in the data set on Saccharomyces cerevisiae [1] (setting [6]), 0.735 ± 0.046; in the data set on Saccharomyces cerevisiae [1] (setting [7]) it was 0.642 ± 0.026; with Saccharomyces cerevisiae [1] (setting [8]) it was 0.646 ± 0.023. Besides, the protein stability index in the data set on Saccharomyces cerevisiae [1] (setting [9]) was determined as 0.719 ± 0.03; in the data set on Saccharomyces cerevisiae [2], 0.695 ± 0.018.

VGGGCVVVVRWG: the protein stability index was 0.589 ± 0.044 in the data set with Saccharomyces cerevisiae [1] (setting [3]); 0.615 ± 0.02 in the data set on Saccharomyces cerevisiae [1] (setting [4]); 0.485 ± 0.019 in the data set with Saccharomyces cerevisiae [1] (setting [5]); 0.619 ± 0.009 in the data set with Saccharomyces cerevisiae [1] (setting [6]); 0.477 ± 0.022 in the data set on Saccharomyces cerevisiae [1] (setting [7]); 0.475 ± 0.012 in the data set with Saccharomyces cerevisiae [1] (setting [8]). The results for the protein stability index in the data set with Saccharomyces cerevisiae [1] (setting [9]) and in the data set on Saccharomyces cerevisiae [2] were 0.594 ± 0.0083 and 0.52 ± 0.035, respectively.

For the sequence VGLWCWSFVLVW, the protein stability index in the data set with Saccharomyces cerevisiae [1] (setting [3]) is 0.0589 ± 0.018; in the data set on Saccharomyces cerevisiae [1] (setting [4]) it was 0.0934 ± 0.034; in the data set with Saccharomyces cerevisiae [1] (setting [5]), 0.11 ± 0.03; in the data set with Saccharomyces cerevisiae [1] (setting [6]), 0.189 ± 0.0028; with Saccharomyces cerevisiae [1] (setting [7]) it was 0.0842 ± 0.021; with Saccharomyces cerevisiae [1] (setting [8]) it was 0.103 ± 0.023. Moreover, the protein stability index in the data set on Saccharomyces cerevisiae [1] (setting [9]) stood at 0.153 ± 0.0027; in the data set on Saccharomyces cerevisiae [2], 0.156 ± 0.038.

For the sequence VGRVIVIVVAGV, the protein stability index in the data set on Saccharomyces cerevisiae [1] (setting [3]) was determined as 0.329 ± 0.012; in the data set with Saccharomyces cerevisiae [1] (setting [4]) it was 0.395 ± 0.016; with Saccharomyces cerevisiae [1] (setting [5]), 0.274 ± 0.036; with Saccharomyces cerevisiae [1] (setting [6]), 0.4541 ± 0.0045; with Saccharomyces cerevisiae [1] (setting [7]) it was 0.236 ± 0.0065; in the data set on Saccharomyces cerevisiae [1] (setting [8]) it was 0.267 ± 0.028. In addition, the protein stability index with Saccharomyces cerevisiae [1] (setting [9]) came to 0.423 ± 0.022; in the data set with Saccharomyces cerevisiae [2], 0.375 ± 0.033.

Regarding VGVCGSSGRVGG, the protein stability index with Saccharomyces cerevisiae [1] (setting [3]) is 0.688 ± 0.03; in the data set on Saccharomyces cerevisiae [1] (setting [4]) it was 0.7314 ± 0.0042; in the data set on Saccharomyces cerevisiae [1] (setting [5]), 0.641 ± 0.014; with Saccharomyces cerevisiae [1] (setting [6]) it was 0.718 ± 0.0032; in the data set on Saccharomyces cerevisiae [1] (setting [7]), 0.643 ± 0.021; in the data set on Saccharomyces cerevisiae [1] (setting [8]), 0.645 ± 0.012. Besides, the protein stability index with Saccharomyces cerevisiae [1] (setting [9]) worked out at 0.717 ± 0.024; with Saccharomyces cerevisiae [2] it was 0.7 ± 0.025.

For the sequence VGVIGWGGLGVG, the protein stability index in the data set on Saccharomyces cerevisiae [1] (setting [3]) amounted to 0.486 ± 0.048; in the data set with Saccharomyces cerevisiae [1] (setting [4]), 0.5527 ± 0.0051; in the data set on Saccharomyces cerevisiae [1] (setting [5]) it was 0.487 ± 0.019; in the data set on Saccharomyces cerevisiae [1] (setting [6]), 0.549 ± 0.015; in the data set on Saccharomyces cerevisiae [1] (setting [7]) it was 0.4929 ± 0.0046; in the data set on Saccharomyces cerevisiae [1] (setting [8]), 0.485 ± 0.014. The protein stability index in the data set with Saccharomyces cerevisiae [1] (setting [9]) worked out at 0.542 ± 0.023; with Saccharomyces cerevisiae [2] it was 0.492 ± 0.00099.

In the case of VHGWRPLLFHTR, the protein stability index in the data set on Saccharomyces cerevisiae [1] (setting [3]) was determined as 0.648 ± 0.032; with Saccharomyces cerevisiae [1] (setting [4]) it was 0.668 ± 0.0099; in the data set on Saccharomyces cerevisiae [1] (setting [5]) it was 0.647 ± 0.0073; in the data set on Saccharomyces cerevisiae [1] (setting [6]) it was 0.702 ± 0.031; with Saccharomyces cerevisiae [1] (setting [7]), 0.674 ± 0.024; in the data set with Saccharomyces cerevisiae [1] (setting [8]), 0.622 ± 0.024. The values for the protein stability index in the data set on Saccharomyces cerevisiae [1] (setting [9]) and with Saccharomyces cerevisiae [2] were 0.6989 ± 0.0063 and 0.519 ± 0.13, respectively.

Consider VHTAIFTSWRRL, for which the protein stability index in the data set with Saccharomyces cerevisiae [1] (setting [3]) was determined as 0.696 ± 0.048; with Saccharomyces cerevisiae [1] (setting [4]), 0.738 ± 0.018; in the data set on Saccharomyces cerevisiae [1] (setting [5]) it was 0.631 ± 0.04; in the data set on Saccharomyces cerevisiae [1] (setting [6]) it was 0.7721 ± 0.001; in the data set on Saccharomyces cerevisiae [1] (setting [7]) it was 0.481 ± 0.018; in the data set on Saccharomyces cerevisiae [1] (setting [8]), 0.494 ± 0.017. For the same sequence, the protein stability index is 0.685 ± 0.02 in the data set with Saccharomyces cerevisiae [1] (setting [9]) and 0.491 ± 0.028 in the data set on Saccharomyces cerevisiae [2].

For the sequence VIGLLSYFLVYL, the protein stability index is 0.498 ± 0.061 in the data set with Saccharomyces cerevisiae [1] (setting [3]); 0.513 ± 0.0062 with Saccharomyces cerevisiae [1] (setting [4]); 0.407 ± 0.037 in the data set on Saccharomyces cerevisiae [1] (setting [5]); 0.6091 ± 0.0039 with Saccharomyces cerevisiae [1] (setting [6]); 0.438 ± 0.032 with Saccharomyces cerevisiae [1] (setting [7]); 0.406 ± 0.019 in the data set with Saccharomyces cerevisiae [1] (setting [8]). Also, the protein stability index in the data set on Saccharomyces cerevisiae [1] (setting [9]) came out at 0.581 ± 0.03; in the data set on Saccharomyces cerevisiae [2] it was 0.491 ± 0.02.

With VIRSIVSAYMIC, the protein stability index with Saccharomyces cerevisiae [1] (setting [3]) came out at 0.552 ± 0.043; in the data set with Saccharomyces cerevisiae [1] (setting [4]) it was 0.649 ± 0.013; with Saccharomyces cerevisiae [1] (setting [5]), 0.563 ± 0.013; with Saccharomyces cerevisiae [1] (setting [6]), 0.6726 ± 0.0028; in the data set on Saccharomyces cerevisiae [1] (setting [7]) it was 0.255 ± 0.0033; with Saccharomyces cerevisiae [1] (setting [8]), 0.248 ± 0.02. Moreover, the results for the protein stability index in the data set with Saccharomyces cerevisiae [1] (setting [9]) and with Saccharomyces cerevisiae [2] were 0.334 ± 0.037 and 0.293 ± 0.051, respectively.

Take VISGFVLVFRVR: the protein stability index in the data set with Saccharomyces cerevisiae [1] (setting [3]) is 0.509 ± 0.0038; in the data set with Saccharomyces cerevisiae [1] (setting [4]), 0.543 ± 0.029; with Saccharomyces cerevisiae [1] (setting [5]), 0.356 ± 0.022; in the data set with Saccharomyces cerevisiae [1] (setting [6]), 0.591 ± 0.066; in the data set on Saccharomyces cerevisiae [1] (setting [7]) it was 0.379 ± 0.026; in the data set with Saccharomyces cerevisiae [1] (setting [8]), 0.344 ± 0.032. For the same sequence, the protein stability index in the data set on Saccharomyces cerevisiae [1] (setting [9]) was 0.566 ± 0.035; in the data set with Saccharomyces cerevisiae [2], 0.441 ± 0.028.

VKGYISLLLVLI: the protein stability index with Saccharomyces cerevisiae [1] (setting [3]) was determined as 0.269 ± 0.01; in the data set with Saccharomyces cerevisiae [1] (setting [4]), 0.332 ± 0.012; in the data set with Saccharomyces cerevisiae [1] (setting [5]) it was 0.264 ± 0.04; in the data set with Saccharomyces cerevisiae [1] (setting [6]), 0.419 ± 0.0071; in the data set with Saccharomyces cerevisiae [1] (setting [7]), 0.289 ± 0.0043; with Saccharomyces cerevisiae [1] (setting [8]) it was 0.259 ± 0.014. In addition, the protein stability index was 0.365 ± 0.011 with Saccharomyces cerevisiae [1] (setting [9]) and 0.345 ± 0.013 in the data set with Saccharomyces cerevisiae [2].

Take VLAARVVLLRCR: the protein stability index in the data set with Saccharomyces cerevisiae [1] (setting [3]) amounted to 0.207 ± 0.0095; with Saccharomyces cerevisiae [1] (setting [4]) it was 0.216 ± 0.033; with Saccharomyces cerevisiae [1] (setting [5]), 0.199 ± 0.031; in the data set on Saccharomyces cerevisiae [1] (setting [6]), 0.335 ± 0.0052; with Saccharomyces cerevisiae [1] (setting [7]), 0.179 ± 0.0064; with Saccharomyces cerevisiae [1] (setting [8]), 0.195 ± 0.028. Besides, the protein stability index in the data set with Saccharomyces cerevisiae [1] (setting [9]) stood at 0.3113 ± 0.001; with Saccharomyces cerevisiae [2], 0.2612 ± 0.0024.

On to VLCFTSAYHRLV, for which the protein stability index in the data set on Saccharomyces cerevisiae [1] (setting [3]) was determined as 0.662 ± 0.017; in the data set with Saccharomyces cerevisiae [1] (setting [4]), 0.739 ± 0.015; in the data set on Saccharomyces cerevisiae [1] (setting [5]), 0.631 ± 0.0098; in the data set with Saccharomyces cerevisiae [1] (setting [6]), 0.724 ± 0.014; with Saccharomyces cerevisiae [1] (setting [7]) it was 0.206 ± 0.014; in the data set with Saccharomyces cerevisiae [1] (setting [8]), 0.262 ± 0.019. Also, the protein stability index stood at 0.5171 ± 0.0028 in the data set with Saccharomyces cerevisiae [1] (setting [9]) and 0.425 ± 0.049 in the data set with Saccharomyces cerevisiae [2].

With VLFLLLFVSRVA, the protein stability index in the data set on Saccharomyces cerevisiae [1] (setting [3]) was 0.2684 ± 0.0016; with Saccharomyces cerevisiae [1] (setting [4]), 0.398 ± 0.017; in the data set on Saccharomyces cerevisiae [1] (setting [5]), 0.259 ± 0.035; with Saccharomyces cerevisiae [1] (setting [6]), 0.453 ± 0.016; with Saccharomyces cerevisiae [1] (setting [7]) it was 0.203 ± 0.012; with Saccharomyces cerevisiae [1] (setting [8]), 0.224 ± 0.03. Besides, the protein stability index was determined as 0.381 ± 0.042 with Saccharomyces cerevisiae [1] (setting [9]) and 0.3312 ± 0.0014 in the data set on Saccharomyces cerevisiae [2].

Consider VLLCFFLGIVGF, for which the protein stability index in the data set with Saccharomyces cerevisiae [1] (setting [3]) stood at 0.36 ± 0.045; in the data set with Saccharomyces cerevisiae [1] (setting [4]), 0.487 ± 0.035; in the data set on Saccharomyces cerevisiae [1] (setting [5]), 0.322 ± 0.024; in the data set with Saccharomyces cerevisiae [1] (setting [6]), 0.488 ± 0.011; with Saccharomyces cerevisiae [1] (setting [7]), 0.296 ± 0.0087; in the data set with Saccharomyces cerevisiae [1] (setting [8]), 0.299 ± 0.012. Further, the protein stability index in the data set with Saccharomyces cerevisiae [1] (setting [9]) is 0.489 ± 0.027; in the data set with Saccharomyces cerevisiae [2], 0.396 ± 0.045.
